The values that follow come from patent publication US20050048605A1 (Takeda / Millennium, published 2005).

The target in assay [1] is T1, rat-derived G protein-coupled receptor protein TGR23-5 (rat TGR23-5) (rat, UniProt P0C0L6 1-372).
T1 sequence: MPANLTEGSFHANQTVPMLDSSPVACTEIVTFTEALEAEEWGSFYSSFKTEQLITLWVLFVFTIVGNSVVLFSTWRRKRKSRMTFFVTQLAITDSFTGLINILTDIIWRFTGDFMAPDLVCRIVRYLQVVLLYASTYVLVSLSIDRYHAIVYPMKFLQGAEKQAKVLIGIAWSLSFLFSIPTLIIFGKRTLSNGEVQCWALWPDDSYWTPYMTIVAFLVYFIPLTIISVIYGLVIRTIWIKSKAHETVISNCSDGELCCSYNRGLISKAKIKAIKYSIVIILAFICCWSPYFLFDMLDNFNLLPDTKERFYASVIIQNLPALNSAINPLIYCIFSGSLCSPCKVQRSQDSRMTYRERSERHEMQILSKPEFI
Nature of the assay: cell-based or functional assay.

Assay [2] concerns the target T2, rat-derived G protein-coupled receptor protein TGR23-1 (rat TGR23-1) (rat, UniProt P0C0L6 1-372).
T2 sequence: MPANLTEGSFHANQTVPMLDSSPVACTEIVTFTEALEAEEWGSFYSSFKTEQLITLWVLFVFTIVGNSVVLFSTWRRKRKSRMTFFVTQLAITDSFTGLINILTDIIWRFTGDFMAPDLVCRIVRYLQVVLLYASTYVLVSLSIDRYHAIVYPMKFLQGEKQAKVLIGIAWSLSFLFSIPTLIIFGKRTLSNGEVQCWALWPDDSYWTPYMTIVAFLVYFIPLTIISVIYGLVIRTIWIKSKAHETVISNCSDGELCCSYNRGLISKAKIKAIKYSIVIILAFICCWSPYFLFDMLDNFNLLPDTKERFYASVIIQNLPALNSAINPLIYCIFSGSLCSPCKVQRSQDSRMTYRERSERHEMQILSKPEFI
The experiment in a line: cell-based or functional assay.

For assay [3], the target named is T3, human-derived G protein-coupled receptor protein TGR23-2 (human TGR23-2) (human, UniProt Q6W5P4 1-371).
T3 construct: Expressed in CHO dhfr- cells (pAKKO-TGR23-2)
T3 chain: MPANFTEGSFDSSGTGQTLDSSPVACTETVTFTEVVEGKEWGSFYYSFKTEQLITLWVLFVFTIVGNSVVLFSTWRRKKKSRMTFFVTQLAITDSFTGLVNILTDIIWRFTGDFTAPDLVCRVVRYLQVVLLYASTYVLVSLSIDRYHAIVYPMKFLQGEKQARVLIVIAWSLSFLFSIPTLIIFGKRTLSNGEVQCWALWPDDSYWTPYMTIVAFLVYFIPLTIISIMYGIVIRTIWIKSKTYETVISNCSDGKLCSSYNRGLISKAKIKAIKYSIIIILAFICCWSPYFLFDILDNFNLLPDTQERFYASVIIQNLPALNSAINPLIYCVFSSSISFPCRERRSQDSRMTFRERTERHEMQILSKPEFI
Nature of the assay: competition with [Nle10,125I-Tyr15] human TGR23-2 ligand (1-20); membrane fraction of TGR23-2 expressing CHO cells at 1 ug/ml; filter assay. How it is done:
Cell membrane fraction prepared from TGR23-1 expressing CHO cells and TGR23-2 expressing CHO cells was diluted to various concentration with assay buffer (20 mM Tris-HCl, 5 mM EDTA, 0.1% BSA, 0.5 mM PMSF, 1 μg/ml Pepstatin, 4 μg/ml E-64, 20 μg/ml Leupeptin, pH7.4), and 200 μl each of the diluent was dispensed into polypropilene test tube (Falcon 2053). In order to determine an amount of maximum binding, 2 μl of DMSO and 2 μl of 10 nM [Nle¹⁰, ¹²⁵I-Tyr¹⁵] human TGR23-2 ligand (1-20) were added to the membrane fraction solution. Further, in order to determine a non-specific binding, 2 μl of 1 μM [Nle¹⁰, Tyr¹⁵] human TGR23-2 ligand (1-20)/DMSO solution was added to the membrane fraction solution. The reaction was done at 25° C. for 90 minutes, and the reaction mixture was filtered by suction filtration using Whatman glassfilter (GF-F) treated with polyethyleneimine. After filtration, a radioactivity remaining on the filter was counted using γ-counter, and an amount of specific binding was estimated by subtracting an amount of non-specific binding from an amount of maximum binding. When the concentration of membrane fraction was changed, a specific binding of [Nle¹⁰, ¹²⁵I-Tyr¹⁵] human TGR23-2 ligand (1-20) was perceived depending on the concentration of membrane fraction. An inhibition of binding activity of the test specimen to TGR23-1 receptor or TGR23-2 receptor (inhibition rate (%)) was represented by a ratio of the value to the specific binding (SB), wherein the value is calculated by subtracting the radioactivity remaining on the filter (X) in the case of adding the test sample and [Nle¹⁰, ¹²⁵I-Tyr¹⁵] human TGR3-2 ligand (1-20) from the total binding (TB) ((TB−X)/SB×100 (%)).

The target of assay [4] is T3, human-derived G protein-coupled …. The experiment in a line: radioligand filter binding on the membrane fraction of TGR23-2 expressing CHO cells. From the text:
(§1) The Receptor Binding Assay Using [Nle¹⁰, ¹²⁵I-Tyr¹⁵] human TGR3-2 ligand (1-20) Using using [Nle¹⁰, ¹²⁵I-Tyr¹⁵] human TGR23-2 ligand (1-20) prepared by the method described in Example 26, and a cell membrane fraction prepared from TGR23-2 expressing CHO cells as described in Example 24 and a cell membrane fraction prepared from TGR23-1 expressing CHO cells by the similar method to that described in Example 24 using TGR23-1 expressing CHO cells instead of TGR23-2 expressing CHO cells, a receptor binding assay was carried out as follows.
(§2) Cell membrane fraction prepared from TGR23-1 expressing CHO cells and TGR23-2 expressing CHO cells was diluted to various concentration with assay buffer (20 mM Tris-HCl, 5 mM EDTA, 0.1% BSA, 0.5 mM PMSF, 1 μg/ml Pepstatin, 4 μg/ml E-64, 20 μg/ml Leupeptin, pH7.4), and 200 μl each of the diluent was dispensed into polypropilene test tube (Falcon 2053). In order to determine an amount of maximum binding, 2 μl of DMSO and 2 μl of 10 nM [Nle¹⁰, ¹²⁵I-Tyr¹⁵] human TGR23-2 ligand (1-20) were added to the membrane fraction solution. […] After filtration, a radioactivity remaining on the filter was counted using γ-counter, and an amount of specific binding was estimated by subtracting an amount of non-specific binding from an amount of maximum binding. […]

The target in assay [5] is T2, rat-derived G protein-coupled receptor …. Nature of the assay: saturation binding with Scatchard analysis on the membrane fraction of rat TGR23-1 expressing CHO cells; row head 'Binding Constant'; text gives dissociation constant 141±8.71 (pM). How it is done: (§3) The membrane fractions of rat TGR23-1 expressing CHO cells and rat TGR23-5 expressing CHO cells, which were prepared as described above, were suspended in binding buffer (20 mM Tris-HCl (pH7.4), 5 mM EDTA, 0.1% BSA, 0.5 mM PMSF, 0.1 μg/ml of pepstatin, 20 μg/ml of leupeptine and 4 μg/ml of E-64). The concentrtion was adjusted to 10 μg/ml. The solutiion was used as a membrane fraction solution for binding saturation. Total binding of [Nle¹⁰, ¹²⁵I-Tyr¹⁵] human TGR23-2 ligand (1-20), which was prepared by the method described in Example 26, to the membrane fractions, was obtained by the following method.
(§4) To 200 μl of the membrane fraction solution for binding saturation, 2 μl of dimethylsulfoxide (DMSO) and 2 μl of [Nle¹⁰, ¹²⁵I-Tyr¹⁵] human TGR23-2 ligand (1-20) having various concentrations, were added, and then the mixture was incubated at 25° C. for 90 minutes. […] The radioactivity of [Nle¹⁰, ¹²⁵I-Tyr¹⁵] human TGR23-2 ligand (1-20) trapped on the glass filter was measured by counter, and the obtained value was determined as the total binding. […] A specific binding at a given concentration of [Nle¹⁰, ¹²⁵I-Tyr¹⁵] human TGR23-2 ligand (1-20) is calculated by subtracting the non-specific binding from the total binding at the same concentration. […]

For assay [6], the target named is T1, rat-derived G protein-coupled receptor …. Nature of the assay: saturation binding with Scatchard analysis on the membrane fraction of rat TGR23-5 expressing CHO cells; row head 'Binding Constant'; text gives dissociation constant 125±8.36 (pM). How it is done: as §3, §4
Assay [7] addresses T4, human-derived G protein-coupled receptor protein TGR23-1 (human TGR23-1) (human, UniProt Q6W5P4 1-371).
T4 construct: Expressed in CHO dhfr- cells (pAKKO-TGR23-1)
T4 sequence: T3 chain with I107N, R344Q
Nature of the assay: radioligand filter binding on the membrane fraction of TGR23-1 expressing CHO cells.
Source text: as §1, §2

Numbering of substitutions follows the chain as printed. Where no end group is shown, it is not given here. [ ]: non-standard residue; d: D form. The star is where a group is joined. Nle = CCCC[C@H](N)C(=O)O; 125I = [125I]*

In the case of SFRNGVGSGVKKTSFRRA [rat TGR23-2 ligand (1-18)], the “Intracellular Ca increasing activity (EC50)” value in assay [1] worked out at 14 nM; in assay [2], 0.19 nM. Besides, in assay [3], the IC50 is 0.0928 nM.

In the case of SFRNGVGTG[Nle]KKTSY(125I)QRAKS [[Nle^10, ^125I-Tyr^15] human TGR23-2 ligand (1-20)], the binding result in assay [4] and in assay [7] was “binds” in each case. Also, the Kd in assay [5] was found to be 0.141 nM; in assay [6] it was 0.125 nM.

Regarding SFRNGVGTGMKKTSFQRAKS (also called human TGR23 ligand (1-20)) [human TGR23-2 ligand (1-20)], the IC50 in assay [3] turned out to be 0.105 nM.

With SFRNGVGSGAKKTSFRRAKQ [mouse TGR23-2 ligand (1-20)], in assay [3], the IC50 came to 0.0245 nM.
